Results taken from PMC11833078.

Experiments:
[1] = target: Prp19 (Chlamydomonas reinhardtii (endogenous)); assay: cryo-EM structure; endogenous spliceosomes (C* complex) isolated at 4 °C by the same procedure from the Cdc5L-Flag and the Prp19-Flag knock-in strains: anti-FLAG M2 resin (20 mM HEPES-KOH pH 7.9, 150 mM NaCl, 1.5 mM MgCl2, 4% glycerol), FLAG peptide elution, 10-30% glycerol gradient with 0-0.1% glutaraldehyde; two reconstructions at 2.6 Å without obvious differences, one atomic model
[2] = target: Prp19-Flag (Chlamydomonas reinhardtii (endogenous)); assay: as above

For Prp19 (natural protein), the stoichiometry N [1] was 4.
Substance Prp19-Flag (natural protein) has a stoichiometry N [2] of 4.
